Test results as given in article doi:10.1101/2025.11.19.685371v1 (bioRxiv, 2025).

Experiments:
Thioflavin T = assay type: physicochemical; conditions: 2.5 μM Aβ in PBS, 20 μM ThT, room temperature, shaking 100 rpm between reads
[1] = FCS size characterization; assay type: physicochemical; conditions: individual 30 s FCS measurements, 10 per sample; three preparations
[2] = tested on: immortalized human cortical astrocytes; test: Cell viability of astrocytes; assay type: cell-based; conditions: 4 μM Aβ, 24 hours, 37°C; three biological replicates

Substance	ThT aggregation t1/2 (Thioflavin T) [h]	CV of sizes within the same preparation [1] [%]	toxicity of Aβ to astrocytes (cell viability) [2]
Aβ monomers: Aβ42 peptide with methionine as N-terminal residue, recombinantly expressed in E. coli, SEC-purified aggregate-free monomer	1.32 ± 0.13	–	–
Aβ oligomers: stable pre-formed Aβ oligomers prepared by the protocol of Barghorn et al. with SDS	–	17 ± 2	significantly higher toxicity
